Assay results: PMC2710508, “A Peek into Tropomyosin Binding and Unfolding on the Actin Filament” (PLoS ONE, 2009)

How the values were obtained:
Conditions in all cases: both partners purified
[1] = target: T1, F-actin from chicken pectoral skeletal muscle (chicken, UniProt P68139 1-377); experiment: differential scanning calorimetry; tropomyosin 15 µM and TnT 70–170 18 µM with phalloidin (36 µM) stabilized F-actin (24 µM), 100 mM NaCl, 10 mM Hepes pH 7.0, 2 mM MgCl2, 1 mM DTT; three heating scans at 1°C/min; peak of unfolding/dissociation of actin-bound tropomyosin
[2] = target: T1, F-actin from chicken pectoral skeletal …; experiment: co-sedimentation; tropomyosin 0.1–10 µM with 0.12–12 µM troponin T 70–170 (1.2× molar excess) and 5 µM F-actin, 20°C, 250 mM NaCl, 10 mM TrisHCl pH 7.5, 2 mM MgCl2, 0.5 mM DTT; pellets and supernatants by SDS-PAGE and densitometry; apparent constant (Kapp) and Hill coefficient from a fit to the Hill equation
[3] = target: T1, F-actin from chicken pectoral skeletal …; experiment: light scattering temperature scan; unlabeled tropomyosin 6 µM, TnT 70–170, phalloidin (27 µM) stabilized F-actin (18 µM), 100 mM NaCl, 10 mM sodium phosphate pH 7.5, 2 mM MgCl2, 1 mM DTT; 90° scattering at 245 nm, 20–65°C at 1°C/min; temperature of 50% decrease in scattering

DSC ΔΔH (with minus without F-actin) [1] [kcal/mol]	Ka [2] [M⁻¹]	Binder	DSC TM of dissociation from F-actin (TM3) [1] [°C]	light scattering TM (half maximal dissociation from F-actin) [3] [°C]
14.4	1.83e+06	P2P3Shift tropomyosin (Y60A/L64A/L106A/A120L) (natural protein, striated muscle alpha-tropomyosin, rat, cDNA in pET11d, expressed with an unacetylated N-terminal Met; combines the P2Shift and P3Shift mutations; TnT 70-170 present in every actin experiment; source: E. coli BL21 (DE3), purified (ammonium sulfate fractionation, DE52 cellulose, hydroxylapatite)) MDAIKKKMQMLKLDKENALDRAEQAEADKKAAEDRSKQLEDELVSLQKKLKGTEDELDKASEAAKDAQEKLELAEKKATDAEADVASLNRRIQLVEEELDRAQERAATALQKLEEAEKALDESERGMKVIESRAQKDEEKMEIQEIQLKEAKHIAEDADRKYEEVARKLVIIESDLERAEERAELSEGKCAELEEELKTVTNNLKSLEAQAEKYSQKEDKYEEEIKVLSDKLKEAETRAEFAERSVTKLEKSIDDLEDELYAQKLKYKAISEELDHALNDMTSI	44.4	–
–	–	tropomyosin P3Shift C190S/L113C, unlabeled (natural protein, striated muscle alpha-tropomyosin, rat, cDNA in pET11d, expressed with an unacetylated N-terminal Met; Unlabeled form used for light scattering; source: E. coli BL21 (DE3), purified (ammonium sulfate fractionation, DE52 cellulose, hydroxylapatite)) not shown	–	41.9
–	–	tropomyosin P2Shift C190S/L71C, unlabeled (natural protein, striated muscle alpha-tropomyosin, rat, cDNA in pET11d, expressed with an unacetylated N-terminal Met; Unlabeled form used for light scattering; source: E. coli BL21 (DE3), purified (ammonium sulfate fractionation, DE52 cellulose, hydroxylapatite)) not shown	–	40.7
